Among the data in patent US20090305309A1 are cyan-to-yellow emission ratio of the purified Src reporter after in vitro phosphorylation by Src, emission ratio change of the Src reporter in HeLa cells on EGF stimulation and emission ratio change of the monomeric (A206K CFP/YFP) Src reporter in response to Src kinase in vitro values, retold here.

The experiment concerns the target Src substrate peptide … derived from p130cas, tyrosine-phosphorylated by Src. In words: cell-based or functional assay.

Turning to c-Src SH2 domain of the Src reporter, the cyan-to-yellow emission ratio of the purified Src reporter after in vitro phosphorylation by Src came to 25%, the emission ratio change of the Src reporter in HeLa cells on EGF stimulation lay within 25 to 35% and the emission ratio change of the monomeric (A206K CFP/YFP) Src reporter in response to Src kinase in vitro is 43%.
